{
  "source": "patent US11674950B2",
  "about": "“Methods determining and treating cellular resistance to ADP-rtbosylating toxin” (priority 2017, dated 2023)",
  "molecules": {"B1": {"name": "tagraxofusp (protein)", "chain": "MGADDVVDSSKSFVMENFSSYHGTKPGYVDSIQKGIQKPKSGTQGNYDDDWKGFYSTDNKYDAAGYSVDNENPLSGKAGGVVKVTYPGLTKVLALKVDNAETIKKELGLSLTEPLMEQVGTEEFIKRFGDGASRVVLSLPFAEGSSSVEYINNWEQAKALSVELEINFETRGKRGQDAMYEYMAQACAGNRVRRSVGSSLSCINLDWDVIRDKTKTKIESLKEHGPIKNKVISESPNKTVSEEKAKQYLEEFHQTALEHPELSELKTVTGTNPVFAGANYAAWAVNVAQVIDSETADNLEKTTAALSILPGIGSVMGIADGAVHHNTEEIVAQSIALSSLMVAQAIPLVGELVDIGFAAYNFVESIINLFQVVHNSYNRPAYSPGHKTRPHMAPMTQTTSLKTSWVNCSNMIDEIITHLKQPPLPLLDFNNLNGEDQDILMENNLRRPNLEAFNRAVKSLQNASAIESILKNLLPCLPLATAAPTRHPIHIKDGDWNEFRRKLTFYLKTLENAQAQQTTLSLAW"}, "B2": {"name": "Tagraxofusp-APC: APC-tagged, fluorescently labeled tagraxofusp used for confocal microscopy (conjugate)", "chain": "MGADDVVDSSKSFVMENFSSYHGTKPGYVDSIQKGIQKPKSGTQGNYDDDWKGFYSTDNKYDAAGYSVDNENPLSGKAGGVVKVTYPGLTKVLALKVDNAETIKKELGLSLTEPLMEQVGTEEFIKRFGDGASRVVLSLPFAEGSSSVEYINNWEQAKALSVELEINFETRGKRGQDAMYEYMAQACAGNRVRRSVGSSLSCINLDWDVIRDKTKTKIESLKEHGPIKNKVISESPNKTVSEEKAKQYLEEFHQTALEHPELSELKTVTGTNPVFAGANYAAWAVNVAQVIDSETADNLEKTTAALSILPGIGSVMGIADGAVHHNTEEIVAQSIALSSLMVAQAIPLVGELVDIGFAAYNFVESIINLFQVVHNSYNRPAYSPGHKTRPHMAPMTQTTSLKTSWVNCSNMIDEIITHLKQPPLPLLDFNNLNGEDQDILMENNLRRPNLEAFNRAVKSLQNASAIESILKNLLPCLPLATAAPTRHPIHIKDGDWNEFRRKLTFYLKTLENAQAQQTTLSLAW"}},
  "key": {"[1]": {"system": "eEF2", "experiment": "In vitro ADP-ribosylation assay in cell lysates with biotin-NAD+", "format": "biochemical, human", "experimental": "A biochemical assay was next performed to test the ability of tagraxofusp to catalyze ADP-ribosylation in cellular lysates in the presence of exogenous biotin-tagged […] (NAD) as a source of ADP-ribose.\nTo determine the biochemical mechanism of SL-401 resistance and restoration of sensitivity upon non-cytotoxic treatment with azacitidine, an in vitro ADP-ribosylation assay was developed to perform lysates harvested from human leukemia cells. Briefly, 50 μg of cell lysates were harvested and mixed with 5 uM NAD+-Biotin (R&D Systems; 4670-500-01), in the presence or absence of 100 ng of SL-401 (or DT) in 35 uL of reaction buffer containing 20 mM Tris-HCl pH 7.4, 1 mM EDTA, and 50 mM DTT. The mixture is incubated for 15 minutes at room temperature and then the reaction is halted by boiling in SDS loading buffer. An SDS polyacrylamide gel is run and proteins are transferred to a PVDF membrane as in a Western blot. Protein levels are determined by traditional western blot. ADP-ribosylation of target proteins is detected by streptavidin-HRP (Abcam ab7403). […] Top blot is ADP-ribose, presumably on eEF2 (band is at same position as eEF2 protein detected by antibody); next, are levels of eEF2, DPH1, and beta-actin protein."}, "[2]": {"system": "DPH1 locus", "experiment": "Bisulfite pyrosequencing of DPH1 locus CpG sites", "format": "cell-based, human", "details": "azacitidine 300 nM, 2 days on/2 days off over 2 weeks; resistant cells", "experimental": "DPH1 expression is known to be regulated by DNA methylation and sensitivity to Pseudomonas exotoxin A was previously shown to be modulated by CpG methylation in the DPH1 locus. To test whether loss of DPH1 is mediated by DNA methylation, bisulfite pyrosequencing of the DPH1 locus in CpG islands (30 individual CpG sites) was performed by EpigenDx analysis (available on the World Wide Web at epigendx.com/d/service/pyrosequencing/) and the % methylated cytosine at each CpG site was quantitated. This analysis was performed in THP1 parental and 2 SL-401 resistant subclones, and CAL1 parental and 2 SL-401 resistant subclones. Data plotted in FIG. 12 are from THP1 cells, and are representative of CAL1. […] Given this finding, it was believed that 5-azacitidine, a DNA methyltransferase inhibitor or “DNA hypomethylating agent” can reverse the aberrant DPH1 hypermethylation and restore DPH1 expression. The parental and resistant cells were also treated with non-cytotoxic, low doses of azacitidine, so called “epigenetic dosing” (300 nM, 2 days on/2 days off) over 2 weeks to determine if the hypermethylation was reversible by DNA methyltransferase inhibition."}, "[3]": {"system": "DPH1", "experiment": "Quantitative RT-PCR and Western blot for DPH1", "format": "cell-based, human"}, "[4]": {"system": "CAL1 and THP1 cells", "experiment": "Short-term cytotoxicity of azacitidine in parental and SL-401 resistant cells", "format": "cell-based, human", "experimental": "Next, it was tested if azacitidine cooperated with tagraxofusp in AML and BPDCN cells. First, given that azacitidine acts as a cytotoxic chemotherapy at higher doses, experiments were performed to determine whether tagraxofusp-resistant cells were more sensitive to short-term treatment, similar to what was described above (FIGS. 6-8)."}, "[5]": {"system": "BPDCN patient-derived xenografts", "format": "in vivo, mouse", "details": "for time to progression of peripheral blood leukemia burden: two cycles"}, "[6]": {"system": "CAL1, SHI1, and THP1 parental and tagraxofusp-resistant cells", "experiment": "MTT viability after conventional chemotherapy (cytarabine, vincristine)", "format": "cell-based, human", "details": "SL-401 resistant vs parental CAL1, SHI1, THP1", "experimental": "CAL1, SHI1, and THP1 parental and tagraxofusp-resistant cells were tested in MTT viability assays after exposure to increasing doses of cytarabine (AraC) or vincristine (VCR)."}, "[7]": {"system": "THP1 human AML cells", "experiment": "In situ histochemical ADP-ribosylation assay", "format": "cell-based", "details": "resistant vs parental THP1"}, "[8]": {"system": "THP1 human AML cells", "experiment": "Single cell flow cytometric ADP-ribosylation assay", "format": "cell-based", "details": "resistant vs parental THP1", "experimental": "THP1 human AML cells are shown that are parental SL-401 sensitive or SL-401 resistant.\nFor example, in another embodiment, a flow ADP ribosylation assay may be used to measure the functional activity of the entire diphthamide synthesis pathway (FIG. 20). […] The cells were stained with antibodies (e.g., CD45-APC, CD123-PE) at concentration of 1:100, incubated for 30 min at 4° C., and then washed with FACS buffer 5 minutes. The cells were fixed with 3% paraformaldehyde (PFA), incubated for 20 min at RT, and washed with PBS for 5 minutes. The cells were permeabilized with Saponin (1:10 in H2O, BD Biosciences-“Perm/Wash” solution) for 20 min at 4° C., washed with PBS for 5 minutes, and applied with endogenous Streptavidin block (BD Biosciences) for 20 min at RT. The cells were then washed with PBS for 5 minutes and applied with endogenous Biotin block (BD Biosciences) for 20 min at RT. The cells were then washed with PBS for 5 minutes and applied with protein block for 30 min at RT. The cells were washed twice with FACS buffer. Each wash was for 5 minutes. SL-401/biotin solution was added to the samples and the samples was incubated for 30 min at RT. […] The cells were washed 5 minutes in FACS buffer, resuspended in 300 μl FACS buffer and level of the ADP was detected with the flow assay."}, "[9]": {"system": "IL3R (e.g., CD123) positive AML cell lines and primary leukemia cells", "details": "cited from earlier work"}, "[10]": {"system": "mouse models of human leukemia", "details": "in vivo; cited from earlier work"}, "[11]": {"details": "rodents and monkeys; cited from earlier work"}, "[12]": {"system": "parental or tagraxofusp-resistant CAL1 cells", "experiment": "Confocal microscopy of internalization of fluorescently tagged SL-401", "format": "cell-based, human", "details": "30-60 minutes after exposure, resistant vs parental cells"}, "[13]": {"details": "14 days from initiation of treatment, vs vehicle"}},
  "data": [
    {"molecule": "Nc1ncn([C@@H]2O[C@H](CO)[C@@H](O)[C@H]2O)c(=O)n1", "note": "[azacitidine, 5-azacytidine]", "values": [
      {"measurement": "tagraxofusp-mediated ADP ribosylation after azacitidine", "setting": "[1]; long-term azacitidine-treated resistant THP1 cells", "result": "complete restoration of tagraxofusp-mediated ADP ribosylation activity"},
      {"measurement": "DPH1 CpG DNA methylation", "setting": "[2]", "result": "reduction in the DPH1 CpG DNA hypermethylation"},
      {"measurement": "DPH1 protein levels after azacitidine", "setting": "[3]; Western blot, resistant THP1 clones", "result": "partially or fully restored"},
      {"measurement": "DPH1 mRNA expression", "setting": "[3]; azacitidine 300 nM, 2 days on/2 days off over 2 weeks, quantitative RT-PCR", "result": "partially restored mRNA expression"},
      {"measurement": "azacitidine dose response, resistant vs parental", "setting": "[4]; CAL1 parental and 3 SL-401 resistant subclones", "result": "increased sensitivity in resistant cells"},
      {"measurement": "azacitidine cytotoxicity, resistant vs parental", "setting": "[4]; THP1, short-term (72 hour), cytotoxic doses", "result": "more sensitive to cytotoxic doses of azacitidine than parental cells"},
      {"measurement": "time to progression of peripheral blood leukemia burden", "setting": "[5]; four-arm study", "result": "prolonged the time to progression of peripheral blood leukemia burden"}
    ]},
    {"molecule": "Nc1ccn([C@@H]2O[C@H](CO)[C@@H](O)[C@@H]2O)c(=O)n1", "note": "[cytarabine]", "values": [
      {"measurement": "sensitivity of SL-401 resistant cells to chemotherapy", "setting": "[6]", "result": "more sensitive to chemotherapy compared to the parental cells"}
    ]},
    {"molecule": "CC[C@]1(O)C[C@H]2CN(CCc3c([nH]c4ccccc34)[C@@](C(=O)OC)(c3cc4c(cc3OC)N(C=O)[C@H]3[C@@](O)(C(=O)OC)[C@H](OC(C)=O)[C@]5(CC)C=CCN6CC[C@]43[C@@H]65)C2)C1", "note": "[vincristine]", "values": [
      {"measurement": "sensitivity of SL-401 resistant cells to chemotherapy", "setting": "[6]", "result": "more sensitive to chemotherapy compared to the parental cells"}
    ]},
    {"molecule": "B1", "values": [
      {"measurement": "ADP-ribosylation in lysates", "setting": "[1]; parental cells", "result": "caused ADP-ribosylation of a single protein"},
      {"measurement": "ADP-ribosylation in lysates", "setting": "[1]; tagraxofusp-resistant cells", "result": "unable to catalyze ADP-ribosylation of any proteins in the lysate"},
      {"measurement": "spleen size", "setting": "[5]; [13]", "result": "reduction in splenomegaly"},
      {"measurement": "splenic infiltration", "setting": "[5]; [13]", "result": "decreased splenic infiltration of human BPDCN cells"},
      {"measurement": "mice remaining at 200 days", "setting": "[5]; four-arm study, n=10 mice per arm", "result": "one"},
      {"measurement": "progression-free survival", "setting": "[5]; one cycle, daily for 5 days, three PDXs combined, vehicle 12 days", "result": 48, "unit": "days"},
      {"measurement": "overall survival", "setting": "[5]; one cycle, daily for 5 days, three PDXs combined, vehicle 35 days", "result": 71, "unit": "days"},
      {"measurement": "reduction of leukemia burden vs vincristine/dexamethasone", "setting": "[5]; peripheral blood flow cytometry, most animals", "result": "longer sustained reduction in human BPDCN leukemia burden"},
      {"measurement": "residual CD45+CD123+ leukemia at 200 days", "setting": "[5]; peripheral blood, spleen, and bone marrow", "result": "detectable leukemia cells in spleen and bone marrow"},
      {"measurement": "effect of a second cycle", "setting": "[5]; second cycle at progression", "result": "effective"},
      {"measurement": "response of PDX cohorts", "setting": "[5]; three cohorts, 100 ug/kg/day intraperitoneally x5 days", "result": "prolonged progression-free and overall survival"},
      {"measurement": "time to progression of peripheral blood leukemia burden", "setting": "[5]; four-arm study", "result": "prolonged the time to progression of peripheral blood leukemia burden"},
      {"measurement": "SL-401-dependent ADP ribosylation activity", "setting": "[7]", "result": "diminished in the SL-401 resistant cells"},
      {"measurement": "SL-401-dependent ADP ribosylation activity", "setting": "[8]", "result": "diminished in the SL-401 resistant cells"},
      {"measurement": "cytotoxicity", "setting": "[9]", "result": "potently and selectively cytotoxic"},
      {"measurement": "anti-tumor efficacy", "setting": "[10]", "result": "in vivo anti-tumor efficacy"},
      {"measurement": "safety", "setting": "[11]", "result": "Safety was shown at therapeutically active doses"}
    ]},
    {"molecule": "B2", "values": [
      {"measurement": "drug internalization", "setting": "[12]", "result": "internalized equally in resistant and parental cells"}
    ]}
  ]
}
